The target in the assay is T1, Ubiquitin R42E, R72E, untagged free mono-Ub (Homo sapiens (Human), UniProt P0CG47 1-76).
T1 construct: also called Ub R42E, R72E
Description: SPR, immobilized His6-MBP-ENTH on Ni2+ chip, Ub mutant as analyte, single-site model. On the technique in general: SPR reads the build-up and loss of mass on a sensor chip optically.

B1: His6-MBP-ENTH, ENTH domain of yeast Ent1(1-152) (other, yeast (Saccharomyces cerevisiae), UniProt Q12518 1-152, looked up, not shown: small tags and cut ends; large carriers)
chain: MSKQFVRSAKNLVKGYSSTQVLVRNATSNDNHQVSKDSLIELAEKSYDSADFFEIMDMLDKRLNDKGKYWRHIAKALTVIDYLIRFGSENCVLWCRENLYIIKTLKEFRHEDDEGIDQGQIVRVKAKELTALLSDDERLNEERNMNIKGRNR
notes: range 1-152; also called yeast ENTH
With B1, the “fold lower affinity than the wild-type complex” value was around 2.6 fold.

These data come from patent publication US20250019737A1 (TECHNOLOGY INNOVATION MOMENTUM FUND ISRAEL LIMITED …, published 2025).
